Results taken from patent US20180303913A1.
“And” between values parts separate entries of the source, which are not always exact repeats. Identical values can stand only once.

B1: Elongator complex protein 4 (protein)
chain: MAAVATCGSVAASTGSAVATASKSNVTSFQRRGPRASVTNDSGPRLVSIAGTRPSVRNGQLLVSTGLPALDQLLGGGLAVGTVLLIEEDKYNIYSPLLFKYFLAEGIVNGHTLLVASAKEDPANILQELPAPLLDDKCKKEFDEDVYNHKTPESNIKMKIAWRYQLLPKMEIGPVSSSRFGHYYDASKRMPQELIEASNWHGFFLPEKISSTLKVEPCSLTPGYTKLLQFIQNIIYEEGFDGSNPQKKQRNILRIGIQNLGSPLWGDDICCAENGGNSHSLTKFLYVLRGLLRTSLSACIITMPTHLIQNKAIIARVTTLSDVVVGLESFIGSERETNPLYKDYHGLIHIRQIPRLNNLICDESDVKDLAFKLKRKLFTIERLHLPPDLSDTVSRSSKMDLAESAKRLGPGCGMMAGGKKHLDF

Target: T1, Flag-HA-ID2 (human) (UniProt Q02363)
T1 sequence: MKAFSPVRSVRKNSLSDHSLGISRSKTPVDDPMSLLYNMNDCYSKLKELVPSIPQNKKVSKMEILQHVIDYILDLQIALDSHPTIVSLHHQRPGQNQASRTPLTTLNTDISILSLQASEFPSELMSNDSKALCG
Assay: tandem Flag/HA affinity purification of Flag-HA-ID2 complexes from NCI-H1299 cells, LC-MS/MS; CRAPome specificity score

Calculated score [(#peptide*#xcorr)/(AveSC*MaxSC*Found# of Expt.)] | Molecule
0.000131 and 5.32e-05 | 78 kDa glucose-regulated protein (from UniProt P11021)
1.18e-05 | Elongation factor 1-alpha 2 (from UniProt Q05639)
1.1e-05 | GR75_HUMAN Stress-70 protein (from UniProt P38646)
4.5e-05 | Heat shock 70 kDa protein 1A/1B (from UniProt P0DMV8)
1.88e-05 | Heat shock cognate 71 kDa protein (NP_694881) (from UniProt P11142-2)
6.8e-07 | Protein arginine N-methyltransferase 5 (from UniProt O14744) (enzyme)
0.212 | RING finger protein 113A (from UniProt O15541)
23.8 | Transcription factor E2-alpha (from UniProt P15923)
1.25e-05 | Tubulin alpha-1B chain
7.15e-06 | Tubulin beta chain
7.39e-06 | heat shock 70 kDa protein 1-like (from UniProt P34931)
3.81e-06 | heat shock cognate 71 kDa protein isoform 1 (from UniProt P11142)
7.71 | transcription factor 12 isoform b (from UniProt Q99081)
1.79e-05 | tubulin beta-4B chain
0.0043 | B1
